The source of these data is patent US5753229.

Assay [1] deals with Ag 2.15 (FC-2.15 antigen of breast tumor cells; membrane bands of 160 kDa, 130 kDa and 115 kDa) (human).
For assay [2] the target is unchanged. Put plainly: cell ELISA on MCF-7 cells after periodate oxidation, against untreated cells. A general note: An ELISA detects its analyte on a solid surface through an enzyme-linked reagent.

B1: monoclonal antibody FC-2.15 (antibody, V domains shown)
VH: VKLQESGGGLVQPGGSLKLSCAASGFDFSRYWMSYVRQAPGKGLEWIGEIDPDSSTINYTPSLKDKFIISRDNAKNTLYLQMSKVRSEDTALYYCARETGTPFDYWGQGTTLTVSS
VL: DIVMTQSPASLSVATGEKVTIRCITSTDIDDDMNWYEQKPGEPPKLLISEGNTLRPGVPSPFSSSGYGTDFVFTIENTHSEDVADYYCLQSDNMPFTFGSGTKLEIKP
The molecule B1 yielded a Residual clonogenic ability (%) after MAb and rabbit complement in assay [1] of 11.7%. For the same molecule, the % inhibition of reactivity by 10 mM periodate in assay [2] worked out at 47.1%.
